Data reported in patent US11369662B2 (The Medical College of Wisconsin, Inc., priority 2014, dated 2022).

Experiments:
CXCL12WT dimerization = target: T1, CXCL12WT dimerization (Homo sapiens, UniProt P48061); experiment: Intrinsic tryptophan fluorescence polarization assay of CXCL12WT dimerization; type: binding; settings: for ΔGdimer: 298 K
T1 construct: made in house
Method: Fluorescence polarization assay. Fluorescence polarization (FP) assays were performed on a PTI spectrofluorometer equipped with automated polarizers, using a time base polarization method provided by the program Felix32. […] Experiments were performed in duplicate and the reported dimerization Kd values reflect the average of both experiments.

CXCR4(Y12A) = target: T2, CXCR4(Y12A) (Homo sapiens, UniProt P61073, Y12A); experiment: Calcium flux in CHO-K1 cells, FLAG-tagged CXCR4(Y12A); type: cell-based; settings: relative to wildtype CXCR4
T2 construct: expressed in transfected cells; host or cells: CHO-K1 stably expressing Galpha15 (transient)
Method: (§1) Cell culture. Chinese hamster ovary K1 (CHO-K1) cells, stably transfected with the Gα15 gene in pcDNA3.1+, were cultured in a 1:1 mixture of Dulbecco's modified Eagle medium (DMEM) with Glutamax (Gibco):F12 nutrient mixture (Gibco) supplemented with 10% (w/v) fetal bovine serum (FBS) (Gibco). Stable expression of the Gα15 transgene was maintained by further supplementing the growth medium with 700 μg ml^−1 geneticin (Gibco).
(§2) Transfections. For transient transfections with the Flag-CXCR4 WT and N-terminally mutated constructs, the CHO-K1 Gα15 stable cells were lifted using 0.25% (v/v) trypsin-EDTA (Gibco), and 2×10^6 cells were re-plated onto 10 cm culture dishes. […] The cells were transfected 24 hours later using the Mirus TransIT-CHO Transfection Kit according to the manufacturers protocol, with the following exceptions: the amount of CHO transfection reagent was scaled up to 4 μl μg^−1 of DNA in the transfection mixtures, and the amount of CHO mojo reagent was scaled up to 1 μl μg^−1 of DNA in the mixtures. […]
(§3) Calcium flux. […] Fluorescence was measured at 310 K using a FlexStation2 Microplate Reader with excitation and emission wavelengths at 485 nm and 515 nm, respectively. […] CXCR4 variants with EC50 or maximum calcium response values more than three standard deviations from the mean CXCR4WT quantities were deemed significant.

CXCR4 (Y7A, Y12A, Y21A) = target: T3, CXCR4 (Y7A, Y12A, Y21A) (Homo sapiens, UniProt P61073, Y12A/Y21A/Y7A); experiment: Calcium flux in CHO-K1 cells, FLAG-tagged CXCR4 with Y7A, Y12A and Y21A; type: cell-based
T3 construct: expressed in transfected cells; host or cells: CHO-K1 stably expressing Galpha15 (transient)
Method: as §1, §2, §3

U-937 cells = experiment: Agarose microdroplet assay of U-937 migration; type: cell-based; settings: 18-24 h, serum-containing media
Method: Agarose microdroplet assay. The agarose microdroplet assay was performed to determine U-937 cellular migration, as previously described. 0.5×10^6 cells/ml U-937 target cells were harvested and washed in HBSS. Cells were spun at 2,000 rpm and were transferred to a graduated 15 ml glass conical tube. The cell concentration was adjusted in agarose medium, prepared from 2% low melting temperature Seaplaque agarose and medium containing 15% FBS, using a 1:4 volume-to-volume dilution. A 1 μl agarose droplet containing 1-10^5 target cells was placed in the center of each well of a 96-well flat-bottom tissue culture plate, in triplicate, using a gastight 0.05 ml Hamilton syringe (Hamilton Company, Reno, Nev.). Droplets were allowed to harden at 4° C. for 20 min. 200 μl chilled test media was applied to each well. […] The plate was incubated for 18-24 h at 37° C. and 5% CO2. Following incubation, the radius of each droplet was determined and target cell migration was measured at four directional points 900 from one another, using an inverted light microscope equipped with a gridded eyepiece, at 40× total magnification. Percent inhibition of each sample was quantified. The plate was incubated for an additional 24 h to measure recovery, and viability was determined by trypan blue exclusion.
Agarose microdroplet assay. The agarose microdroplet assay was performed to determine U-937 cellular migration, as previously described {AdeCXCL121an, 1980 #1609}. 0.5×10^6 cells/ml U-937 target cells were harvested and washed in HBSS. Cells were spun at 2,000 rpm and were transferred to a graduated 15 ml glass conical tube. […] Following incubation, the radius of each droplet was determined and target cell migration was measured at four directional points 900 from one another, using an inverted light microscope equipped with a gridded eyepiece, at 40× total magnification. Percent inhibition of each sample was quantified. The plate was incubated for an additional 24 h to measure recovery, and viability was determined by trypan blue exclusion.

CXCR41-38 = target: T4, CXCR41-38 (Homo sapiens, UniProt P61073, C28A); experiment: Binding of CXCL12 variants to CXCR41-38 by 2D NMR chemical shift perturbation; settings: nonlinear fitting of chemical shift perturbations, quadratic binding equation; read-out: Kd (affinity for CXCR41-38)
T4 construct: comprising the first 38 amino acids of CXCR4 preceded by a residual GlyMet dipeptide tag; made in house
Method: Total peptide additions differed for individual peptide titrations but ranged from 0-160 equivalencies. Spectra were processed using in-house scripts and chemical shift tracking was performed using CARA software. […] For a given interaction, residues with the largest chemical shift perturbations were fitted individually.

T1 sequence (P48061 22-89): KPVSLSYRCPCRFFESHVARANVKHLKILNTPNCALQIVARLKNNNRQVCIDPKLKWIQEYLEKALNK
T3 sequence (P61073 whole entry Y7A/Y12A/Y21A): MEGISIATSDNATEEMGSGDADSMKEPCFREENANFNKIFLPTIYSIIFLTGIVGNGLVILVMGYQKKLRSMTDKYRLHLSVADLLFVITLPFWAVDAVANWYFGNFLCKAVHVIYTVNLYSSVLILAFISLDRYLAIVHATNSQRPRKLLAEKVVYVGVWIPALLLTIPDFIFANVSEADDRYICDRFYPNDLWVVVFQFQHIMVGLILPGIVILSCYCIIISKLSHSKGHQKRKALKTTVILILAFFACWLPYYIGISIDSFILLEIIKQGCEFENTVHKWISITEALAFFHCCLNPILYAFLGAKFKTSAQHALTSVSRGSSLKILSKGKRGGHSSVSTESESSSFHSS
T2 sequence (P61073 whole entry Y12A): as the sequence (P61073 whole entry Y7A/Y12A/Y21A) above, with A7Y, A21Y counted along it
T4 sequence (P61073 1-38 C28A): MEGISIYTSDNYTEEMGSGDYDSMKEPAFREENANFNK

ΔGdimer (CXCL12WT dimerization; pathway 1: dimerization after sTyr21 sulfopeptide binding)	ΔGdimer (CXCL12WT dimerization; pathway 2: dimerization before sulfopeptide binding)	Kd (CXCL12WT dimerization; read-out: Kd for CXCL12WT dimerization, in the presence of 50 mM sulfotyrosine)	reduction of potency (calcium response) (CXCR4(Y12A))	efficacy (maximum calcium response) (CXCR4 (Y7A, Y12A, Y21A))	Kd (CXCR41-38)	Substance	potency (calcium response) (CXCR4 (Y7A, Y12A, Y21A); relative to CXCR4(Y21A))	maximal inhibition of U-937 cell migration (U-937 cells)
−3.5 kcal mol^−	−2.5 kcal mol^−	9.3 ± 1.8 mM	3 fold	~20 % of the wildtype receptor		CXCL12WT: wild type CXCL12 (stromal cell-derived factor-1/SDF-1), SEQ ID NO:1	did not further diminish the potency relative to CXCR4(Y21A)	40.1±18%
					0.0009 ± 0.0003 mM	CXCL122: constitutively dimeric variant of CXCL12 containing L36C/A65C mutations		
